T1: MGME1 (Homo sapiens, UniProt Q9BQP7 21-344)
T1 sequence: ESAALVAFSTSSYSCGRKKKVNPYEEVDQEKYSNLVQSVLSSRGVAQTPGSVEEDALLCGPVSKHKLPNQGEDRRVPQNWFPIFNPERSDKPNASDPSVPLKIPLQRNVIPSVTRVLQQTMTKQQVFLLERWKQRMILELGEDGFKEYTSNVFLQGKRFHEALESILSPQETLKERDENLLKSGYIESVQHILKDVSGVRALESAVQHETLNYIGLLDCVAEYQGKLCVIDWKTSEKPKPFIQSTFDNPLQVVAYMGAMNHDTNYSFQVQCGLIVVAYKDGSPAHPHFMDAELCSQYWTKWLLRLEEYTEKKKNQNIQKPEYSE


These binders were tested against T1, MGME1 (assay: competition (fluorescence polarization); 10 mM EDTA; 140 nM MGME1 with 2 nM T20(5') preformed; FP: 2 nM FAM-ssDNA, 20 mM Hepes pH 8.0 (at 37 C), 100 mM NaCl, 0.1 mg/ml BSA, 1 mM DTT, 10 mM EDTA, mixed at room temperature, 15 min; EMSA: 1 uM ssDNA, 20 mM Hepes pH 8.0, 100 mM NaCl, 1 mM DTT, 10 mM EDTA, room temperature 15 min, gel 0.35x TBE at 4 C). Conditions: protein: recombinant; tags: His-SUMO tag removed by Ulp1; single strand.

TTTTTTTTTTTTTTTTTTTT (ssDNA) [T20 (unlabeled)] showed a Kd of 250 ± 33 nM.

What follows are binders tested against T1, MGME1 (assay: fluorescence polarization; 10 mM EDTA; FP: 2 nM FAM-ssDNA, 20 mM Hepes pH 8.0 (at 37 C), 100 mM NaCl, 0.1 mg/ml BSA, 1 mM DTT, 10 mM EDTA, mixed at room temperature, 15 min; EMSA: 1 uM ssDNA, 20 mM Hepes pH 8.0, 100 mM NaCl, 1 mM DTT, 10 mM EDTA, room temperature 15 min, gel 0.35x TBE at 4 C). Conditions: protein: recombinant; tags: His-SUMO tag removed by Ulp1; label: 3'-6FAM; single strand.

First: TTTTTTTTTT (ssDNA, 5'-phosphate) [T10(3')-5'p]
Second: TTTTTTTTTT (ssDNA, 5'-phosphate-tetrahydrofuran (abasic) before T10) [T10(3')-5'dSp]
The Kd of the first is 4.7-fold higher: 1600 ± 75 nM for the first, 340 ± 24 nM for the second. The second binds more tightly here.

Compared with TTTTTTTTTTTTTTTTTTTT (ssDNA, 5'-phosphate) [T20(3')-5'p], TTTTTTTTTT (ssDNA) [T10(3')] is 42-fold higher in Kd: 180 ± 5 nM for the first, 7500 ± 890 nM for the second.

TTTTTTTTTTTTTTTTTTTT (ssDNA) [T20(3')] was tested, and the Kd was 330 ± 83 nM.

Same assay, conditions: protein: recombinant; tags: His-SUMO tag removed by Ulp1; label: 5'-6FAM; single strand

Going from AAAAAAAAAAAAAAAAAAAA (ssDNA, 5' phosphate linkage of the FAM label) [A20(5')] to TTTTTTTTTT (ssDNA, 5' phosphate linkage of the FAM label) [T10(5')], the Kd falls from 1300 ± 170 nM to 600 ± 150 nM (2.2-fold). The second binds more tightly here.

For TTTTTTTTTTTTTTTTTTTT (ssDNA, 5' phosphate linkage of the FAM label) [T20(5')], the Kd was 240 ± 36 nM.

Source: paper PMC9460513, “The 5′-phosphate enhances the DNA-binding and exonuclease activities of human mitochondrial genome maintenance exonuclease 1 (MGME1)”
